Results as given in patent US20250163186A1 (PHYLAXIS BIOSCIENCE, published 2025).

Legend:
[1] = target: T1, CH2-4 constant domains of human IgE linked to a transmembrane protein, on 293 cells (human, UniProt P01854-1 104-428); test: flow cytometry, 293 cells expressing human IgE CH2-4
T1 construct: domain: CH2-4 constant domains; also called human IgE-expressing 293 cells
Experimental: First, 25 μg of DNA was added to Opti-MEM Reduced Serum Medium (Gibco) mixed with 75 μL of 40 kDa Polyethylenimine (PEI) for a final concentration of 1 μg DNA and 2.5 μg PEI per mL of culture volume. The plasmid DNA was allowed to pre-complex with PEI for 15 minutes before transferring the mixture to 25 mL of 293 cells in a shake flask at a density of 2×10⁶ cells/mL. […] Next, 50 μL of cells were transferred to wells of a round-bottom 96-well assay plate for a total of 50,000 293 cells per well. In a separate 96-well plate, monomeric VHH-hIgG1-Fc fusion proteins were titrated 1:5 in a 8-point dilution series starting at 1 μM in FACS Buffer with the 8th point containing no antibody. 50 μL from each antibody dilution was added to wells containing 50 μL of FACS Buffer with transfected 293 cells which produced a 2-fold dilution of the antibody concentrations from the dilution series resulting in a 500 nM final, starting concentration of the test article titration. The test articles and 293 cells were incubated together at 4° C. for 30 minutes. Next, the 96-well plates were centrifuged at 400×g for 5 minutes and the FACS buffer containing unbound antibody was decanted. Cells were washed 1× with 150 μL 4° C. FACS Buffer. […] The cells were incubated with the fluorophore conjugated detection antibody at 4° C. for 20 minutes. 293 cells were then centrifuged and washed once as described above. Cell pellets were resuspended in 30 μL FACS Buffer and analyzed on an iQue Screener Plus flow cytometer (Sartorius, IntelliCyt) with a 1 second sip time and 1 second void time. Mean fluorescent intensity was calculated using iQue onboard software gating on GFP+ or citrine+ cells.

human IgE = target: T2, human IgE (human, UniProt P01854 1-428); test: ELISA, clone lysate on IgE-coated plate
T2 construct: written under the same molecule; also called IgE (Abcam ab65866); soluble IgE
T2 sequence (P01854 other isoform, or with tags, fused parts or gaps limits assumed, form in doubt): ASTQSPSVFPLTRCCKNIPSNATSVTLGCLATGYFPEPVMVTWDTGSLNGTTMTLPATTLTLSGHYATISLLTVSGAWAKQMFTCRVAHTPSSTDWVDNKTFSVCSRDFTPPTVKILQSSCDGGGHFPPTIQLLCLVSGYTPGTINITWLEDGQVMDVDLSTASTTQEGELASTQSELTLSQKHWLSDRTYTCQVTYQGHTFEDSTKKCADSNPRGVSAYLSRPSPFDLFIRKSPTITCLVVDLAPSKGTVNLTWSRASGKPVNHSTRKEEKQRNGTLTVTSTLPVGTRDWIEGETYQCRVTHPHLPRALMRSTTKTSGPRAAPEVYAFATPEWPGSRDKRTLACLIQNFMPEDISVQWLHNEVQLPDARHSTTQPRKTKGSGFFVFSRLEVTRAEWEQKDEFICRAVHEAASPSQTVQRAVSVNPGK
Source text: Each amino acid in CDR1 (SEQ ID NO:3), CDR2 (SEQ ID NO:68), and CDR3 (SEQ ID NO:74) was randomly replaced such that the 20 natural amino acids would likely all have been sampled at every position. The expression vector for the VHH containing the mutagenized CDRs was then transfected into E. coli, and at least 96 clones were randomly chosen for each position mutated in each CDR. This gives likely coverage of all potential mutations at each position since the probability to get any given amino acid at that position is 5%. […] The heat maps represent the relative binding for each clone determined by the range of OD values from the ELISA background to WT CDR binding (FIGS. 16A-16C). Site numbering for each residue tested is indicated by the inset tables in FIGS. 16A-16C.

T1 sequence (P01854 other isoform, or with tags, fused parts or gaps): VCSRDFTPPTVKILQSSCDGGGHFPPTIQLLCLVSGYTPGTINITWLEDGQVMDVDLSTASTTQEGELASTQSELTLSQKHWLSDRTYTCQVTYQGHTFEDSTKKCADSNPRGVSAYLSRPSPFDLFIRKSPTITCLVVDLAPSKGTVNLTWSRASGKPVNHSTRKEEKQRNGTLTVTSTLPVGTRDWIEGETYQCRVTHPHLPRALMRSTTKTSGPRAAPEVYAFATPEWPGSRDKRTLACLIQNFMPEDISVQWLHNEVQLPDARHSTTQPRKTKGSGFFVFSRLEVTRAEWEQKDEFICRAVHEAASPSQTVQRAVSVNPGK

Binder | Bmax [1] | Kd [1] | Confirm OD450 Duplicate1 (human IgE) | Confirm OD450 Duplicate2 (human IgE) | R1 Screening OD450 (human IgE)
hzB10v4-NNT (Fc fusion, monomeric) VHH-Fc: EVQLVQSGGELVQAGGSLRLSCVASGLTFSSYNMGWLRQAPGKEREFVGMSGSSSTSTYYAESVKGRFTISRDNAKNTLYLQMSSLRAEDTAVYYCAARRMLSTYWSDRSWDFWGQGTQVTVKPGGPSVFLFPPKPKDTLMISRTPEVTCVVVDVSHEDPEVKFNWYVDGVEVHNAKTKPREEQYNSTYRVVSVLTVLHQDWLNGKEYKCKVSNKALPAPIEKTISKAKGQPREPQVYTLPPSRDELTKNQVNLTCLVKGFYPSDIAVEWESNGQPENNYKTTPPVLDSDGSFFLNSTLTVDKSRWQQGNVFSCSVMHEALHNHYTQKSLSLSPGK | 3.89e+06 MFI | 75 nM | – | – | –
hzB10v5-NNT (Fc fusion, monomeric) VHH-Fc: EVQLVQSGGELVQAGGSLRLSCVASGLTFSSYNMGWLRQAPGKEREFVGMSGSSSTSTYYADSVKGRFTISRDNSKNTVYLQMNSLKPEDTAVYYCAARRMLSTYWSDRSWDFWGQGTQVTVEPGGPSVFLFPPKPKDTLMISRTPEVTCVVVDVSHEDPEVKFNWYVDGVEVHNAKTKPREEQYNSTYRVVSVLTVLHQDWLNGKEYKCKVSNKALPAPIEKTISKAKGQPREPQVYTLPPSRDELTKNQVNLTCLVKGFYPSDIAVEWESNGQPENNYKTTPPVLDSDGSFFLNSTLTVDKSRWQQGNVFSCSVMHEALHNHYTQKSLSLSPGK | – | 2.5 nM | – | – | –
28H1 (VHH) VHH: EVQLLESGGGEVQPGGSLRLSCVASGLTFSSYNMGWLRQAPGKEREFVGLSGSSSTSTYYAESVKGRFTISRDNAKNTVYLQMTSLRAEDTAVYYCSARRLLSTYWSDRSWDFWGQGTLVTVEP | – | – | 0.471 | 0.492 | 0.927
32F11 (VHH) VHH: EVQLLESGGGEVQPGGSLRLSCVASGLTFSSYNMGWLRQAPGKEREFVGLSGSSSTSTYYAESVKGRFTISRDNAKNTVYLQMTSLRAEDTAVYYCAARRRLSTYWSDRSWDFWGQGTLVTVEP | – | – | 0.557 | 0.557 | 0.924
33-2A2 (VHH) VHH: EVQLLESGGGEVQPGGSLRLSCVASGLTFSSYNMGWLRQAPGKEREFVGLSGSSSTSTYYAESVKGRFTISRDNAKNTVYLQMTSLRAEDTAVYYCAARRLKSTYWSDRSWDFWGQGTLVTVEP | – | – | 0.557 | 0.564 | 1.01
9G9 (VHH, also called hzB10v40 VHH, CDR1 site 9 M to T) VHH: EVQLLESGGGEVQPGGSLRLSCVASGLTFSSYNTGWLRQAPGKEREFVGLSGSSSTSTYYAESVKGRFTISRDNAKNTVYLQMTSLRAEDTAVYYCAARRLLSTYWSDRSWDFWGQGTLVTVEP | – | – | 0.535 | 0.524 | 0.886
9D1 (VHH, also called hzB10v40 VHH, CDR1 site 9 M to I) VHH: EVQLLESGGGEVQPGGSLRLSCVASGLTFSSYNIGWLRQAPGKEREFVGLSGSSSTSTYYAESVKGRFTISRDNAKNTVYLQMTSLRAEDTAVYYCAARRLLSTYWSDRSWDFWGQGTLVTVEP | – | – | 0.435 | 0.442 | 0.905
33-2C4 (VHH) VHH: EVQLLESGGGEVQPGGSLRLSCVASGLTFSSYNMGWLRQAPGKEREFVGLSGSSSTSTYYAESVKGRFTISRDNAKNTVYLQMTSLRAEDTAVYYCAARRLFSTYWSDRSWDFWGQGTLVTVEP | – | – | 0.514 | 0.523 | 1
10E3 (VHH, also called hzB10v40 VHH, CDR1 site 10 G to S) VHH: EVQLLESGGGEVQPGGSLRLSCVASGLTFSSYNMSWLRQAPGKEREFVGLSGSSSTSTYYAESVKGRFTISRDNAKNTVYLQMTSLRAEDTAVYYCAARRLLSTYWSDRSWDFWGQGTLVTVEP | – | – | 0.508 | 0.494 | 0.846
33-2C5 (VHH) VHH: EVQLLESGGGEVQPGGSLRLSCVASGLTFSSYNMGWLRQAPGKEREFVGLSGSSSTSTYYAESVKGRFTISRDNAKNTVYLQMTSLRAEDTAVYYCAARRLHSTYWSDRSWDFWGQGTLVTVEP | – | – | 0.525 | 0.573 | 1.01
9E8 (VHH, also called hzB10v40 VHH, CDR1 site 9 M to L) VHH: EVQLLESGGGEVQPGGSLRLSCVASGLTFSSYNLGWLRQAPGKEREFVGLSGSSSTSTYYAESVKGRFTISRDNAKNTVYLQMTSLRAEDTAVYYCAARRLLSTYWSDRSWDFWGQGTLVTVEP | – | – | 0.522 | 0.539 | 0.897

The next lines start with the values.

Bmax [1] | Kd [1] | Confirm OD450 Duplicate1 (human IgE) | Confirm OD450 Duplicate2 (human IgE) | R1 Screening OD450 (human IgE) | Binder
– | – | 0.452 | 0.454 | 0.879 | 9B1 (VHH, also called hzB10v40 VHH, CDR1 site 9 M to V) VHH: EVQLLESGGGEVQPGGSLRLSCVASGLTFSSYNVGWLRQAPGKEREFVGLSGSSSTSTYYAESVKGRFTISRDNAKNTVYLQMTSLRAEDTAVYYCAARRLLSTYWSDRSWDFWGQGTLVTVEP
– | – | 0.593 | 0.612 | 1.07 | 35G3 (VHH) VHH: EVQLLESGGGEVQPGGSLRLSCVASGLTFSSYNMGWLRQAPGKEREFVGLSGSSSTSTYYAESVKGRFTISRDNAKNTVYLQMTSLRAEDTAVYYCAARRLLSRYWSDRSWDFWGQGTLVTVEP
– | – | 0.49 | 0.5 | 0.88 | 9H9 (VHH, also called hzB10v40 VHH, CDR1 site 9 M to F) VHH: EVQLLESGGGEVQPGGSLRLSCVASGLTFSSYNFGWLRQAPGKEREFVGLSGSSSTSTYYAESVKGRFTISRDNAKNTVYLQMTSLRAEDTAVYYCAARRLLSTYWSDRSWDFWGQGTLVTVEP
– | – | 0.556 | 0.537 | 1.06 | 44C1 (VHH) VHH: EVQLLESGGGEVQPGGSLRLSCVASGLTFSSYNMGWLRQAPGKEREFVGLSGSSSTSTYYAESVKGRFTISRDNAKNTVYLQMTSLRAEDTAVYYCAARRLLSTYWSDRSWDMWGQGTLVTVEP
– | – | 0.562 | 0.585 | 1 | 39C11 (VHH) VHH: EVQLLESGGGEVQPGGSLRLSCVASGLTFSSYNMGWLRQAPGKEREFVGLSGSSSTSTYYAESVKGRFTISRDNAKNTVYLQMTSLRAEDTAVYYCAARRLLSTYWSMRSWDFWGQGTLVTVEP
– | – | 0.498 | 0.467 | 0.921 | 9F1 (VHH, also called hzB10v40 VHH, CDR1 site 9 M to S) VHH: EVQLLESGGGEVQPGGSLRLSCVASGLTFSSYNSGWLRQAPGKEREFVGLSGSSSTSTYYAESVKGRFTISRDNAKNTVYLQMTSLRAEDTAVYYCAARRLLSTYWSDRSWDFWGQGTLVTVEP
– | – | 0.661 | 0.654 | 1.14 | 44A11 (VHH) VHH: EVQLLESGGGEVQPGGSLRLSCVASGLTFSSYNMGWLRQAPGKEREFVGLSGSSSTSTYYAESVKGRFTISRDNAKNTVYLQMTSLRAEDTAVYYCAARRLLSTYWSDRSWDKWGQGTLVTVEP
– | – | 0.55 | 0.534 | 1.01 | 39E11 (VHH) VHH: EVQLLESGGGEVQPGGSLRLSCVASGLTFSSYNMGWLRQAPGKEREFVGLSGSSSTSTYYAESVKGRFTISRDNAKNTVYLQMTSLRAEDTAVYYCAARRLLSTYWSHRSWDFWGQGTLVTVEP
– | – | 0.484 | 0.479 | 0.966 | 10G10 (VHH, also called hzB10v40 VHH, CDR1 site 10 G to A) VHH: EVQLLESGGGEVQPGGSLRLSCVASGLTFSSYNMAWLRQAPGKEREFVGLSGSSSTSTYYAESVKGRFTISRDNAKNTVYLQMTSLRAEDTAVYYCAARRLLSTYWSDRSWDFWGQGTLVTVEP
